Results reported in the RNAGym collection of RNA variant scans (doi:10.1073/pnas.2313332121).

B1: TPR t1 (parent)
chain: GACCAAUCUGCCCUCAGAGCUCGAGAACAUCUUCGGAUGCAGAGGAGGCAGGCUUCGGUGGCGCGAUAGCGCCAACGUCCUCAACCUCCAAUGCAUCCCACCACAUGAUGAUGCCUGAAGAGCCUUGGUUUUUUG

Variants of: B1
Assay: polymerase ribozyme fitness, log enrichment relative to wild type (log ratio); higher = more active; in vitro selection for triplet polymerase activity
Method in brief: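 Input and output libraries were sequenced on Illumina after a single in vitro selection round, run in triplicate on PCR-built, transcribed mutant libraries of each subunit of a heterodimeric triplet polymerase ribozyme. Selection annealed libraries to a biotinylated primer, the partner subunit and triplets, incubated them frozen at −7 °C, then gel-excised extended constructs for streptavidin-bead capture and RT-PCR. Genotypes with ≥10 input reads and ≥1 read per output were kept. Fitness is the logarithm, taken in base 2, of genotype enrichment divided by wild-type enrichment, using inverse-variance-weighted replicate averages.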

Row | Variant | polymerase ribozyme fitness (log ratio)
1 | C12G C28G A37U C72U G110U | -0.76
2 | C12G U14C G45A A68G U106A | -4.06
3 | C12U A75G U92A | -2.45
4 | C12U A16U C20U G71C C114A G127U | -3.54
5 | C12U C89U | 0.399
6 | C12G G44A C73G C82U | -0.977
7 | C12A G110A C123U | -1.84
8 | C13A A41G G63A U132C | -4.55
9 | C12U A16C U59A U92C C124A | 0.146
10 | C12U C101U | -0.102
11 | C12U C53U C56U | -0.154
12 | C12G G36U G61U A111C | 0.246
13 | C12G G93A | -0.233
14 | C12G C64A | -6.46
15 | C12G G48A G93A | -1.44
16 | C12U C124A | 1.8
17 | C12G C94G A105C | -4.19
18 | C12U G57A | -0.879
19 | C12G G39U G61U | 0.0718
20 | C12U G71A A111C C115A U131G U133A | -0.622
21 | C12U A50U C56G | -1.24
22 | C12U U133A | 0.306
23 | C12G A27G G39C | -3.18
24 | C13A C94G C101A | -4.8

Row | Variant | polymerase ribozyme fitness (log ratio)
25 | C13A C56G | -2.27
26 | C13A C56A | -1.3
27 | C12U G19U | -2.49
28 | C12U A18C G52U C79A G127C | -2.61
29 | C12G C98U U133G | -1.82
30 | C12A U130C | -1.06
31 | C12U A41U | -0.786
32 | C12U C20A A74U G128A | -5.15
33 | C12U A26G G45A A84U U132C | -3.75
34 | C12U C73U U81G C82G C123A | 0.809
35 | C12U A16C G42U U78A A121C | -0.175
36 | C12A G117C A121C U132A | -5.13
37 | C12G C34U | -3.31
38 | C12G C34A | -2.33
39 | C13A A50U G71U | -2.57
40 | C12G U21A G77C A84U | -1.73
41 | C12G C79A A91C | -2.84
42 | C12U C73A C97G C104U | -2.89
43 | C12G C94G | -1.02
44 | C13A A50U | -3.1
45 | C12A G113A | -2.14
46 | C12U A27G G69A C88A U125G | -3.8
47 | C12G A43U A75U C124G | 0.348
48 | C13A C49G C56G U96A | -3.42

Row | Variant | polymerase ribozyme fitness (log ratio)
49 | C12U A18C C62U | -2.39
50 | C12U A16U A66C A105C C124G | -5.31
51 | C12U G122U | 1.06
52 | C12G C70U | -0.468
53 | C12G C70G | -2.83
54 | C13A C56U C80A | -2.82
55 | C12G A26U C34U G42U G44U C62G U96C U106A U109A C115G | -6.33
56 | C12G G36A C94A | -3.18
57 | C12U G60C | 0.537
58 | C12U G60A | -0.607
59 | C12G C98A | -4.17
60 | C12U C72G C102A | -2.37
61 | C12G C13A A24G U106G C124A | -1.63
62 | C13A A16U C94U A111U C123G U130C | -6.28
63 | C12U U54A C64U | 0.381
64 | C13A C28G C34A A84C G110C | -1.53
65 | C12G G47U | -1.82
66 | C12A G63C A111U | -4.83
67 | C13A C15G U106A G117C | -0.827
68 | C12U G39U U55A G71A C94G C102A G113U | -6.81
69 | C12G A46C G60U U109C | -6.49
70 | C13A A26G C53G A84U A90G | -4.94
71 | C12G C88G | -0.624
72 | C12A G117U | -1.72

Row | Variant | polymerase ribozyme fitness (log ratio)
73 | C12U G47U C86G G122A | 0.433
74 | C12G G48U C62U | -1
75 | C13A C89A | -3.37
76 | C12U G58A C62A | -1.76
77 | C12U U21A G35A | -4.8
78 | C12G A119U | 0.00185
79 | C12U C79G C101U G120A | 0.377
80 | C12G U14C U59G C73G | -2.57
81 | C12A G63U C70G C89A A90U A100U A121G | -1.48
82 | C12U A84U U131G | -0.996
83 | C12U U14C C72G C82G U112A | 0.602
84 | C12G U78A G93A C124G | 0.89
85 | C12U G17C C49U C82G C94U C99G C123A | -7.59
86 | C12U A50G C56A C85G | -1.73
87 | C12A U54A C80G | -4.17
88 | C12G C15U C31A G44A G47A G63C A84U G110C | -6.78
89 | C12U U109C | -2.5
90 | C12G G51C G71A | -6.1
91 | C12G G47U U87G U116A C124A | -1.26
92 | C12G G19A C20U C98U | -3.29
93 | C12U A41C G60C G128C | -3.6
94 | C13A A27U A43U G57C | -4.33
95 | C12U G35A G42U U112C | -5.14
96 | C12G G63U A66G U109A A119U G127U | -5.43

Row | Variant | polymerase ribozyme fitness (log ratio)
97 | C12G A46U C82G | -1.75
98 | C12G G19A G93U U106A A111G C115A | -6.62
99 | C12G A66C G93A C104U | -1.71
100 | C13A A83U | -2.07
101 | C12U G42C C73A G122A | -0.687
102 | C12U C53A G58C C82G G128A | -2.46
103 | C13A A46C G69C C124G | -1.36
104 | C12G U59G A90G G113A | -2.53
105 | C12G C40U C97U | -1.01
106 | C12G G52U | -0.405
107 | C13A C79G | -3.47
108 | C12U U38G C72G | -0.666
109 | C12G A46G G48A C79A | -2.27
110 | C13A C53U | -2
111 | C12U C20U A43U C72U C82A U112A C114G | -2.38
112 | C12U C53G | -0.45
113 | C12A G120U | 1.57
114 | C12U A26C G45C G61C A75C C82A | -6.28
115 | C13A G19C G69U G110U U112C | -5.05
116 | C13A C70G U112A C123U | -4
117 | C12G C115U U133A | -0.348
118 | C12U A16C C73A A83C | 0.284
119 | C12U G61U A105G | -1.62
120 | C12U A46U | -0.688

Row | Variant | polymerase ribozyme fitness (log ratio)
121 | C12A G110A | -1.57
122 | C12U U87A | 0.248
123 | C13A A16U G71C G120C | -0.814
124 | C12G G65C U67G A95G A108U A119U C123U | -5.89
125 | C12U G44U A46U C85A | -4.14
126 | C12G G45C U55C C72U C85A U96A | -4.29
127 | C12A G71U G117C U126C | -6.35
128 | C12U G39C G45U A100U U131G | -3
129 | C13A C64U | -1.99
130 | C12G A26U C114A | -6.59
131 | C13A A100U U131G | -2.21
132 | C12U C70A C88G U129C | -2.57
133 | C13A A24G A29G C94A | -4.2
134 | C12U A18G A41U G47C U109G C124G | -2.39
135 | C12G G61C C104U C115G U133C | -5.69
136 | C12U C102A | -1.07
137 | C12U A103U | -4.81
138 | C12U A46G C62A U67C U112A U129G | -4.48
139 | C12U C79G C89A A121C | -3.82
140 | C13A C76G C97U C102A C104U | -3.66
141 | C12G G47C C53U C56U G113A A118C | -5.05
142 | C12G A121U | 1.78
143 | C12G C22U U32G G69U C72G C102A A111U G122U | -5.99
144 | C13A G39C C76G U106C | -2.79

Row | Variant | polymerase ribozyme fitness (log ratio)
145 | C12U G44U C72G G127A G128C | -4.51
146 | C13A A41U G57U | -3.67
147 | C12U C62U C80G U109G C114A | -6.17
148 | C13A A29G C53U | -2.88
149 | C12U C72U G128U | -1.55
150 | C12G G71C A105G U125A | -4.36
151 | C12U U21G C62G A74C U78A | -3.33
152 | C12G C72G U87C | 0.909
153 | C12G C56U | -0.0119
154 | C12U G61A A84U | 0.279
155 | C12G G61U G120U | 2.2
156 | C13A A27C G36A | -4.52
157 | C12U G52U C53G U78G | -0.0807
158 | C13A A18G | -3.1
159 | C12U G36U G47U U106G | -5.66
160 | C12U C20G A43C G48A | -5.39
161 | C12U G69C C73U U129G | -3.42
162 | C12U U14G C15G G61A C88U U129C | -1.38
163 | C12U G44C A50C | -0.802
164 | C12G G42A | -1.36
165 | C12G C22U | -3.18
166 | C12G C28G A37U G110U | 0.364
167 | C12G C40G G63A | -1.01
